Results taken from the DeepSol protein solubility set.

test: soluble on expression in E. coli; label from the status in PepcDB or PDB records

Row | Sequence | soluble on expression in E. coli
1 | MGSDKIHHHHHHMNKKILIIDDNKMLGKLLAKKIQMTLDYEVDIAFGFAEAKELMNNDYFLAFVDLCLPDAPNGEVVDYVIEKKIPAIVLTASGDKATKEKFMDKDILDYIFKESETCIDEIISSIVKLNQYAKTKVIVAMSKLPERNEIKKILTQRQFNVLAAAHGEEAMSYLNDNNDVKLIIADVNMPVISGFELLTQVRERFSDDELGVILLGDHNDSFEANSFKNGVNEYLFKPLSKESFNCRLDRCLSYMDDKKFLSTYNVLDPVSGVKNYNALIDGIDDYFNEIATKDEEFAFAFLDIDNLQMINDEYGREVGDEVIKICANEIVNETKGRDLVGRYSAEKICILLKNISQERAIKIFSRIRVNIKKAGVLVNLDEVFFTASIGVVFGKSGDKIDSLADKASKILSQAKDNGKDRVEVCS | not soluble
2 | MYNISFTPDRPLTYHLEDDQSLARLSLVPGRGGLVTEWTVQGQPILYFDRERFQDPSLSVRGGIPILFPICGNLPQDQFNHAGKSYRLKQHGFARDLPWEVIGQQTQDNARLDLRLSHNDATLEAFPFAFELVFSYQLQGHSLRIEQRIANLGDQRMPFSLGFHPYFFCREKLGITLAIPANDYLDQKTGDCHGYDGQLNLTSPELDLAFTQISQPRAHFIDPDRNLKIEVSFSELYQTLVLWTVAGKDYLCLEPLEHHHHHH | not soluble
3 | MSLDFDADTPVVGMVHLSPLPGAPGYDDGNRPAIRDAALRDASRLEAGGVDALLVENFGDAPFYADDVPKHVVASMAALVRDITREAEVPVGVNVLRNDAEAAVSIAAAADADFVRVNVHTGARLTDQGVVGGQAAETVRLRDRLDAAEVSMLADIDVKHSAALAERPLSEGVAELLERGHADGVIASGAGTGHATDHDHLQAVVDARDRLDADAPVFVGSGVTQETVGATLDLADGAIVGTALKQNGETTAPVDGDRVRALVDAAR | not soluble
4 | MGSDKIHHHHHHMTILDHKIDFAVILSVTKANPNGDPLNGNRPRQNYDGHGEISDVAIKRKIRNRLLDMEEPIFVQSDDRKADSFKSLRDRADSNPELAKMLKAKNASVDEFAKIACQEWMDVRSFGQVFAFKGSNLSVGVRGPVSIHTATSIDPIDIVSTQITKSVNSVTGDKRSSDTMGMKHRVDFGVYVFKGSINTQLAEKTGFTNEDAEKIKRALITLFENDSSSARPDGSMEVHKVYWWEHSSKLGQYSSAKVHRSLKIESKTDTPKSFDDYAVELYELDGLGVEVIDGQ | not soluble
5 | MSLGEKMAIWRTKKPATKQKIVSDLQELGIKKGDTIIFHASMSKAHWICGGPVTVILALQELVGELGNIVMPAQTGQLSDPAKWENPPVPESWWKIIRRETPPFDPLVTPTRGMGVIAETFRTMPDVERSFHPYHSFCAWGKDKKQILANQPLAKSMGDESPLGKMYQLDAKIILFGVDNNNNTSLHLAEERSNAFPLIENQAAFLKNGEIIWEKYQEIDYNSEVFIALGRAYEKEHDFHPTTIIGAPTKIYDMRDLVDFGTKYFQTKNHEGHHHHHH | soluble
6 | MSRIEQLISDIESYIDNCKYYPLSNVKIIVNKEQLEDMLTELRLKTPDEVKKYQKILSNKDAILADAKEQADAIINAAQIQTEELINEHEIMQRAYAQANELIEQATAQAQTILDNATEEANSIRYGAMQYTDDMLAKLQYIIEHSIKDNKEKYDSLLSGLENVLSVVNNNRNELSGIEENSTEESADTDASNETDSQSDDEE | not soluble
7 | MGSDKIHHHHHHMAEEIPVYLFTGFMDSGKTSLIKDTIFENDFANGSKGLIIMCEDGDVEYDMDKLKAANIQVAEIDSEDEFAAAKLNELNMQYLPEQVFIEYNGTWGIDKIIEAELPKGWVIVQSLATVDSTTFDLYMNNMRAMMQEQVFASDVVIFNRTDDDTDRGHLRRTIKNINRKAQIVYERKDGTIDERPEELPFDINQDVIELSDADYAIWYMDAMENYKKYDGKVVKFLALVYNPDKLRKGVMVPGRFAMTCCIEDVTFIGFKCKYEDESSIPHKSWITITARVHVEFAREYKGKGPVLYPVSIEPAEKPQDELVYFS | not soluble
8 | MAHHHHHHMVLHIYHAAVGEKEFQFSTNINKLTQETYELDVNEAIEEVSSTILEQLTGEDALCCECKAAPATRLIHHTMLFAETFPPRVEDLPQPVCNSANCEAVAKSRYLMDMEDATTAQGMPSPNGCFHCHKGARGAATVPLQRCSRCKVAKYCSVECQKADWKVHKQVCAPG | not soluble
9 | KVLGDGSYLFEGKTSLSDVRHYLDLPENAFGELGDEVDTLSGLFLEIKQELPHVGDTAVYEPFRFQVTQMDKRRIIEIKIFPFERTWEVE | not soluble
10 | SLRLKLSLTPKQDFSFDKINKHTIQGFIYSLLKDTEFGEMHNQPRFKFWCFSDIFPPNDFVKGEDKYLLISSPREEFINVLYERLDNLEEVNLNNFKFEVSELKKFDLKVKNKFITGSPIVLYKDKDRGEYIKFYDDDFDLMFFVQRLQDNAVKKYKAFYNEEPVLNGFIFDRISPRVRNGRVDVYVRIAKKGREFLVVGTTWKLLEKIKIRKEERKFYKFIMDCGLGEKNSLGFGFINPIK | not soluble
11 | MGSDKIHHHHHHVPDITIATERCIGCAECARDCPTGIIRMENGIPAVAPRREKRCIGCLHCVTVCPCGALSFRGVTPESCTPLKNRFPQPEALEILMKGRRSVRRFLPEAVDSALIRRTVDAAAHAPSGKNQRGLLFTVVDDPQTMNRLRHDTVEAVREALADGCSHPQTAFFQAALARWDTGTDIIFRNAPHLLWVTAPRTNTTAQADVHVALTYFELMAAACGLGTLWCGFATWAMSEIAPRIARGLGIPEAHTSGYVMLFGKPAVRYHRTAERGCDGFNRVVWPPAT | not soluble
12 | MGSDKIHHHHHHMYEHQTYEAILVRMLARVPETIDKREGSLIYDALAPGAAELAQAYAELVVNNNLSFADTASGEFLTRRAAEFGIKRKVATKAWRRGGFLDSNNALLNIPLGSRYSIGGLNYTAIEQISTGAYVLECETAGTAGNQQFGDLLPIAYVNSLARAELTEVLVPGEDEETDEALLSRYYETVNEPAFGGNMADYRQKVNAINGVGGTKVFPTWAGGGTVKCTIIASDWAKPSPELVNEVQSTMDPEENQGMGLGQAPIGHAVTIAGVDKVTVDVETTLTLAPGVTPGQVQSDVEAILDAYLLEQRKTWAAQTQIIIRMAQIDARMLTVQGVEDVTGTKLNGTEANFLLDEEEIPILGTVIINE | not soluble
13 | MSLVTKEREQIYILDGDIPFLAQRARLEANFTMEAKAHIQLFHQYFFNLPPDNDYIKWTVGKAMYMADGTALKQKQALDENGFYSDIISSSAVCTIMCDSIQFDEHERKFTYYGTQLIKRRTKDLKRSMITTGYIESVPRTRNNPHGLLITNWRTLENKDLDYEGHHHHHH | soluble
14 | MLVVPAIDLFRGKVARMIKGRKENTIFYEKDPVELVEKLIEEGFTLIHVVDLSNAIENSGENLPVLEKLSEFAEHIQIGGGIRSLDYAEKLRKLGYRRQIVSSKVLEDPSFLKSLREIDVEPVFSLDTRGGRVAFKGWLAEEEIDPVSLLKRLKEYGLEEIVHTEIEKDGTLQEHDFSLTKKIAIEAEVKVLAAGGISSENSLKTAQKVHTETNGLLKGVIVGRAFLEGILTVEVMKRYAR | soluble
15 | MFKIKTIESLSDLTQLKKAYFDSSIVPLDGMWHFGFAPMAKHFGFYVNKNLVGFCCVNDDGYLLQYYLQPEFQLCSQELFTLISQQNSSVIGEVKGAFVSTAELNYQALCLDNSATFKVNSLMYQHNTKLADRNLEMIDMQIAGTEQLTAFVTFAAANIGAPEQWLTQYYGNLIERKELFGYWHKGKLLAAGECRLFDQYQTEYADLGMIVAQSNRGQGIAKKVLTFLTKHAATQGLTSICSTESNNVAAQKAIAHAGFTSAHRIVQFEFKHA | soluble
16 | MGSDKIHHHHHHMDIREKKTPPTLAPGQTSNPATSLPPRTVEGLRDLVVSIGRDQAEVKLGAKALTVLAHLVERPEEVAVRTITDLANSLDVNASTLTRLATRLGFEGFAEFQGVFRNSMAQRHRHFYSQQAERLVGADNTGMPGGVSPEVGAVVQLAHESIQNVERFVARLSAEELRGAAELLAEAPRVRVHGLRQFSALASFLCYGLSMIRSDVGLLDAHGLGVAEGLAQLQRGDVVVVMSVAPYTRSVAEAAAAAAESGLTVIAITDTSASPLAAAARHAFFIPHESSFFSNSMGAYLIFCEGLLNLAATKLGKRSLRALARREQMIAALDIETE | not soluble
17 | MGSDKIHHHHHHASCEKDPDMGKLDDNYLVYTNYDKQANFKDFSTFYLADKILVISDSKEPEYLEGEGAEQILAAYTENMEAKGYQPAADKESADLGIQVSYIASTYYFTGYTQPEWWWGYPGYWGPSYWGNWGGWYYPYAVTYSYSTNSFITEMVNLKADEGEGKKLPVVWTSYLTGFETGSKAINRTLAIEAVNQSFTQSPYLTNK | not soluble
18 | MKTVSQLIDMKQKQTKISMVTAYDFPSAKQVEAAGIDMILVGDSLGMTVLGYESTVQVTLADMIHHGRAVRRGAPNTFVVVDMPIGAVGISMTQDLNHALKLYQETNANAIKAEGAHITPFIEKATAIGIPVVAHLGLTPQSVGVMGYKLQGATKEAAEQLILDAKNVEQAGAVALVLEAIPNDLAEEISKHLTIPVIGIGAGKGTDGQVLVYHDMLNYGVEHKAKFVKQFADFSVGVDGLKQYDQEVKSGAFPSEEYTYKKKIMNEVNNNDLEHHHHHH | soluble
19 | GPGSMRNLLGESAVSSLVIEEPTKVAMTTSPTAVLNSSMSTDTDSTAVSPARVKGVSPQTKANGNSNGDGSTAIRGQSNDKQLEAPTEVQYRAVEVMVVDRGTQTTTTVGCQTDPEPSQSPVGGAMPFHRGFCPRCTCCCRGVVRDYPWRNAREEEDRSSRFQEELETIQKSIDMMIARYNLPPPPMPRY | not soluble
20 | MRILFVAAGSPATVFALAPLATAARNAGHQVVMAANQDMGPVVTGVGLPAVATTDLPIRHFITTDREGRPEAIPSDPVAQARFTGRWFARMAASSLPRMLDFSRAWRPDLIVGGTMSYVAPLLALHLGVPHARQTWDAVDADGIHPGADAELRPELSELGLERLPAPDLFIDICPPSLRPANAAPARMMRHVATSRQCPLEPWMYTRDTRQRVLVTSGSRVAKESYDRNFDFLRGLAKDLVRWDVELIVAAPDTVAEALRAEVPQARVGWTPLDVVAPTCDLLVHHAGGVSTLTGLSAGVPQLLIPKGSVLEAPARRVADYGAAIALLPGEDSTEAIADSCQELQAKDTYARRAQDLSREISGMPLPATVVTALEQLAHHHHHH | soluble
21 | MGSDKIHHHHHHMAGDIIVRNKFCDISKVRFRKWDEIDVIFWKFGKSNPERKSGGYYLNAYKDAYIQYNKERIIKYANQAGILPELLGGVAWIESGGMPEEYKFQVFEIKRFLKLKSSPENKTSFGSVAMQIQVAARTLGLNPDILTTRDQLELATCLMEDDFNLWIVAQHLRDMILYDYPSVAALYLTDEQYMMAGIRYNRGIQRKLSEFIRFIDAKPERGSAEFDYISYGVRLLQIRNHIRKLLELNT | not soluble
22 | MIGQTNLFDDVLKQDERFVIVVQALEEKNGQLLKRTLREYPGLNHKQMNDLFTHLKELFSEESFAENQSAFSITVYTNLDYTADQIYAHVKRFRGKHDWTQTAKLEHHHHHH | soluble
23 | MQESAQFFNDTGVSMSMQGFHNEAIACLKKGLALEPDNSLMWLNLGLSYYAAKRQNDSKFALFQSLKYNPYEADAWDSLGLVLFETGDIDQAERAFESAIKLEPENGRVWNNYGTVLFNKENYRAARRAFESAVTLDPEMGDAVFNLRDTYLELGMNDLAERCNKILKEMDYQE | not soluble
